From publication PMC9463536 (The Journal of Biological Chemistry, 2022)

Target: T1, human claudin-4, biotinylated with NHS-PEG4-biotin (human, UniProt O14493 1-209)
T1 construct: also called biotinylated claudin-4
T1 sequence: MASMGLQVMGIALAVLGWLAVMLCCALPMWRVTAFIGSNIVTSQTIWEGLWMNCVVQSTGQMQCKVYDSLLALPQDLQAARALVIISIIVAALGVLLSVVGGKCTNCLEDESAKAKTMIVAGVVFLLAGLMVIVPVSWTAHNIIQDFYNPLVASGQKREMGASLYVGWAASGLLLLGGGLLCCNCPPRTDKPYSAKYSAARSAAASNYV
Assay: BLI
Details: both partners purified

B1: cCpE^1 (cCpE^[change]) (domain or fragment)
chain: KEILDLAAATERLNLTDALNSNPAGNLYDWRSSNSYPWTQKLNLHLTITATGQKYRILASKIVDFNIYSNNFNNLVKLEQSLGDGVKDHYVDISLDAGQYVLVMKANSSYSGNYPYSILFQKF
Q: B1 was tested. Which Kd did it give?
A: The Kd was roughly 3 nM.
